In ChEMBL document CHEMBL3826949, “Characterization of the action of tyrosinase on resorcinols” (Bioorg Med Chem, 2016):
Active and inactive are the calls of the source. No cut-off for these calls is given here.

Legend:
[1] = molecular target: T1, Tyrosinase (Agaricus bisporus, UniProt O42713); assay: Inhibition of mushroom tyrosinase using L-tyrosine as substrate assessed as monophenolase activity by spectrophotometric analysis
T1 sequence (O42713 whole entry): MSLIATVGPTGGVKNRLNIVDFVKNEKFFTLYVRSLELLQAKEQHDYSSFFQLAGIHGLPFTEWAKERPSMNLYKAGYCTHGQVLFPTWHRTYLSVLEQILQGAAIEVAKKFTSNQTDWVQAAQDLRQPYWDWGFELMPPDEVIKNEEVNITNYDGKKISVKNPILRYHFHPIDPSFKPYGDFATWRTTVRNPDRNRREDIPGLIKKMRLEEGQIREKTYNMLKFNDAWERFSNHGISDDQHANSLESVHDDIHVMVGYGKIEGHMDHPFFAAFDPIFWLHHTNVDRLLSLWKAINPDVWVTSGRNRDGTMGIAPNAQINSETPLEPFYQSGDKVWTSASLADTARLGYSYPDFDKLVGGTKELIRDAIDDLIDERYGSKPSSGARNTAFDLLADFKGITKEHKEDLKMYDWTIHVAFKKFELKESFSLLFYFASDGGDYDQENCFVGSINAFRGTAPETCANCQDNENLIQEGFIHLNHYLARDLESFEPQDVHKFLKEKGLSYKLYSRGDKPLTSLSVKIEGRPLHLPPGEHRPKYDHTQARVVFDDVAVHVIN

[2] = molecular target: T2, Tyrosinase (Agaricus bisporus) (UniProt O42713); assay: Inactivation of mushroom tyrosinase using TBC as substrate assessed as reduction in p-quinone accumulation pre-incubated at 0.3 mM for shorter time duration during 0 to 500 secs by spectrophotometric analysis
T2 sequence (whole entry): T1 sequence (O42713 whole entry)

[3] = molecular target: T1, Tyrosinase; assay: Inhibition of mushroom tyrosinase using L-dopa as substrate assessed as diphenolase activity by spectrophotometric analysis
[4] = molecular target: T2, Tyrosinase (Agaricus bisporus); assay: Inactivation of mushroom tyrosinase using TBC as substrate assessed as reduction in p-quinone accumulation pre-incubated at 0.3 mM for longer time duration during 0 to 500 secs by spectrophotometric analysis
[5] = molecular target: T2, Tyrosinase (Agaricus bisporus); assay: Activity of mushroom tyrosinase using TBC as substrate assessed as accumulation of p-quinone in presence of H2O2 spectrophotometric analysis
[6] = molecular target: T2, Tyrosinase (Agaricus bisporus); settings: 30 uM
Description: Inhibition of mushroom tyrosinase activity using TBC as substrate assessed as recovery of enzyme activity at 30 uM preincubated for 60 mins

[7] = molecular target: T2, Tyrosinase (Agaricus bisporus); assay: Substrate activity at mushroom tyrosinase using TBC as substrate assessed as increase in TBC oxidation at 0.05 to 0.50 mM by spectrophotometric analysis
[8] = substrate: Oc1ccccc1; assay: (§1) Substrate activity at mushroom tyrosinase assessed as Km for monophenolase activity in presence H2O2 by spectrophotometry based Michaelis-Menten plot analysis; settings: Agaricus bisporus
[9] = substrate: Cc1c(O)cccc1O; assay: as §1; settings: Agaricus bisporus
[10] = substrate: CCc1ccc(O)cc1O; assay: as §1; settings: Agaricus bisporus
[11] = substrate: N[C@@H](Cc1ccc(O)cc1)C(=O)O; assay: as §1; settings: Agaricus bisporus
[12] = substrate: Oc1ccc(O)cc1; assay: as §1; settings: Agaricus bisporus
[13] = substrate: CCOc1ccc(O)cc1; assay: as §1; settings: Agaricus bisporus
[14] = substrate: Cc1ccc(O)cc1O; assay: as §1; settings: Agaricus bisporus
[15] = substrate: Oc1cccc(O)c1; assay: as §1; settings: Agaricus bisporus
[16] = substrate: COc1ccc(O)cc1; assay: as §1; settings: Agaricus bisporus
[17] = substrate: Oc1ccccc1; assay: (§2) Substrate activity at mushroom tyrosinase assessed as Kcat/Km ratio for monophenolase activity in presence H2O2 by spectrophotometry based Michaelis-Menten plot analysis; settings: Agaricus bisporus
[18] = substrate: Cc1c(O)cccc1O; assay: as §2; settings: Agaricus bisporus
[19] = substrate: CCc1ccc(O)cc1O; assay: as §2; settings: Agaricus bisporus
[20] = substrate: N[C@@H](Cc1ccc(O)cc1)C(=O)O; assay: as §2; settings: Agaricus bisporus
[21] = substrate: Oc1ccc(O)cc1; assay: as §2; settings: Agaricus bisporus
[22] = substrate: CCOc1ccc(O)cc1; assay: as §2; settings: Agaricus bisporus
[23] = substrate: Cc1ccc(O)cc1O; assay: as §2; settings: Agaricus bisporus
[24] = substrate: Oc1cccc(O)c1; assay: as §2; settings: Agaricus bisporus
[25] = substrate: COc1ccc(O)cc1; assay: as §2; settings: Agaricus bisporus
[26] = substrate: Oc1ccccc1; assay: (§3) Substrate activity at mushroom tyrosinase assessed as Kcat for monophenolase activity in presence H2O2 by spectrophotometry based Michaelis-Menten plot analysis; settings: Agaricus bisporus
[27] = substrate: Cc1c(O)cccc1O; assay: as §3; settings: Agaricus bisporus
[28] = substrate: CCc1ccc(O)cc1O; assay: as §3; settings: Agaricus bisporus
[29] = substrate: N[C@@H](Cc1ccc(O)cc1)C(=O)O; assay: as §3; settings: Agaricus bisporus
[30] = substrate: Oc1ccc(O)cc1; assay: as §3; settings: Agaricus bisporus
[31] = substrate: CCOc1ccc(O)cc1; assay: as §3; settings: Agaricus bisporus
[32] = substrate: Cc1ccc(O)cc1O; assay: as §3; settings: Agaricus bisporus
[33] = substrate: Oc1cccc(O)c1; assay: as §3; settings: Agaricus bisporus
[34] = substrate: COc1ccc(O)cc1; assay: as §3; settings: Agaricus bisporus

Molecule: Cc1ccc(O)cc1O
- IC50 [1]: 9.31 µM
- inhibition [2]: Active
- IC50 [3]: 3.3 µM
- inhibition [4]: inactive
- Activity [5]: Active

Molecule: CCc1ccc(O)cc1O
- IC50 [1]: 1.9 µM
- inhibition [6]: inactive
- inhibition [2]: Active
- Activity [7]: Active
- IC50 [3]: 1.1 µM
- inhibition [4]: inactive
- Activity [5]: Active

Molecule: Oc1cccc(O)c1 [RESORCINOL]
- IC50 [1]: 1130 µM
- inhibition [2]: Active
- Activity [7]: Active
- IC50 [3]: 652 µM
- inhibition [4]: inactive
- Activity [5]: Active

Molecule: Cc1c(O)cccc1O
- IC50 [1]: 1420 µM
- Activity [7]: Active
- IC50 [3]: 717 µM
- Activity [5]: Active

B1: Tyrosinase (Agaricus bisporus), O42713 (protein)
chain: T1 sequence (O42713 whole entry)
- Km [8]: 700 µM
- Km [9]: 2700 µM
- Km [10]: 117 µM
- Km [11]: 210 µM
- Km [12]: 920 µM
- Km [13]: 170 µM
- Km [14]: 203 µM
- Km [15]: 460 µM
- Km [16]: 80 µM
- kcat/Km [17]: 18100 M⁻¹ s⁻¹
- kcat/Km [18]: 3700 M⁻¹ s⁻¹
- kcat/Km [19]: 51300 M⁻¹ s⁻¹
- kcat/Km [20]: 37600 M⁻¹ s⁻¹
- kcat/Km [21]: 110000 M⁻¹ s⁻¹
- kcat/Km [22]: 776000 M⁻¹ s⁻¹
- kcat/Km [23]: 38100 M⁻¹ s⁻¹
- kcat/Km [24]: 39900 M⁻¹ s⁻¹
- kcat/Km [25]: 2.3e+06 M⁻¹ s⁻¹
- kcat [26]: 12.7 s⁻¹
- kcat [27]: 9.94 s⁻¹
- kcat [28]: 6 s⁻¹
- kcat [29]: 7.9 s⁻¹
- kcat [30]: 102 s⁻¹
- kcat [31]: 132 s⁻¹
- kcat [32]: 7.73 s⁻¹
- kcat [33]: 18.3 s⁻¹
- kcat [34]: 184 s⁻¹
